Source: article PMC11996917, “An inherited predisposition allele promotes gastric cancer via enhancing deubiquitination-mediated activation of epithelial-to-mesenchymal transition signaling”

Biological target: GLI3 (His-tagged; probably zinc-finger fragment) (UniProt P10071 480-632)
Assay: EMSA; dose-dependent shift; 5 mM MgCl2; EMSA: 20 mM Tris-HCl pH 7.5, 50 mM NaCl, 5 mM MgCl2, 0.2 mM EDTA, 1 mM DTT, 1 h at room temperature; 6% native PAGE
Details: protein: recombinant; tags: His; label: biotin; blunt

Chain of GLI3 (His-tagged; probably zinc-finger fragment) (P10071 480-632): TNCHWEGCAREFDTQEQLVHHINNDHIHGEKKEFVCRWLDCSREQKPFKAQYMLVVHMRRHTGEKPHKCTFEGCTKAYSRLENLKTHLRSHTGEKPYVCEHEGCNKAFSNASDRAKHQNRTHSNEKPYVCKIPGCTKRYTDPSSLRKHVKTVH

B1: rs72856331-G (dsDNA)
DNA 1: CCCCAAGCAGGGGGTGGCCCCTGAG
DNA 2: CTCAGGGGCCACCCCCTGCTTGGGG
binding result: binds
